The source of these data is US20220281997A1 (published 2022).

Some targets named below: AS200 VHH; AS325 VHH; AS673 VHH; AS988 VHH; AS154 VHH; AS656 VHH; AS675 VHH; AS588 VHH; AS519 VHH.
Common to all, as to test: SPR
Assay [1] deals with His-tag camel-derived nanobody AS718 VHH-His.
Sequence of His-tag camel-derived nanobody AS718 VHH-His (VHH, as listed by the source): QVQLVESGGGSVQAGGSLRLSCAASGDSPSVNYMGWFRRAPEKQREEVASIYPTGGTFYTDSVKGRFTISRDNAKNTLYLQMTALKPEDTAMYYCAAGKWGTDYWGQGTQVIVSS

Sequence of AS200 VHH (VHH, as listed by the source): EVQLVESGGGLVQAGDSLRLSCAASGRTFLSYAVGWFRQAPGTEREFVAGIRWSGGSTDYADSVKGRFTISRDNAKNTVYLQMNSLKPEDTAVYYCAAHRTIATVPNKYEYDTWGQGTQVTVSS
Sequence of AS154 VHH (VHH, as listed by the source): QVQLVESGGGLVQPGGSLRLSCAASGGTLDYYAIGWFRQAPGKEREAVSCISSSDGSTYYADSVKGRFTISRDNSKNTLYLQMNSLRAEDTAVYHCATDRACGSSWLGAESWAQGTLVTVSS
Sequence of AS588 VHH (VHH, as listed by the source): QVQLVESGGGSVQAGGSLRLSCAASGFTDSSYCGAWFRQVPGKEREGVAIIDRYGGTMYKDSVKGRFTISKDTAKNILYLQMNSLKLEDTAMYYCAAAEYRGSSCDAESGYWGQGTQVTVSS
Sequence of AS988 VHH (VHH, as listed by the source): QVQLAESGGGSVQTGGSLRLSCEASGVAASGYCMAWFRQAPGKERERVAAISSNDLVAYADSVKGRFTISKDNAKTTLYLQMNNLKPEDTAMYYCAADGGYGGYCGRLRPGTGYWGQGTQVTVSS
Sequence of AS519 VHH (VHH, as listed by the source): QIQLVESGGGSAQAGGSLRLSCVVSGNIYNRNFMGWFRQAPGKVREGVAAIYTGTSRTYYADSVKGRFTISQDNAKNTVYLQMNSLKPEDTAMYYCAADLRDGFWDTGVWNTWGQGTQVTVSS
Sequence of AS325 VHH (VHH, as listed by the source): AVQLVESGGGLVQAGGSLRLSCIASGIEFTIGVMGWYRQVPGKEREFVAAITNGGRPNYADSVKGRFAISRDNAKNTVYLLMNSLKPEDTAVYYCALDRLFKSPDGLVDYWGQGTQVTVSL
Sequence of AS675 VHH (VHH, as listed by the source): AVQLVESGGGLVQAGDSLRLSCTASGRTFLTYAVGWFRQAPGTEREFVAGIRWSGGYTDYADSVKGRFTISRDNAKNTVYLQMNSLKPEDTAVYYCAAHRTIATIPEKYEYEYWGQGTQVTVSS
Sequence of AS656 VHH (VHH, as listed by the source): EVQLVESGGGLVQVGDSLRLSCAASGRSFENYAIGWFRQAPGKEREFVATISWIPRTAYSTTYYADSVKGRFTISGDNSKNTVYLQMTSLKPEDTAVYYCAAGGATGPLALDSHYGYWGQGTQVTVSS
Sequence of AS673 VHH (VHH, as listed by the source): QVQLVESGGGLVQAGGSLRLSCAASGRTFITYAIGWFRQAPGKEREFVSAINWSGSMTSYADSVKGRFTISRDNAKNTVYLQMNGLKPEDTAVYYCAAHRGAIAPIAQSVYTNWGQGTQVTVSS

B1: R166.C5 (antibody, V domains shown)
VH: QSVEESGGRLVTPGTPLTLTCTVSGFSLRNFAMSWVRQAPGKGLEWIGIIYSGGTRDYATWAKGRFTISKTSTTVDLKMTSPTTEDTATYFCARDRSPDYSAAFLLWGQGTLVTVSS
VL: IVMTQTPSSKSVPVGDTVTINCQASESVYSNNHLAWFQQKPGQPPKLLIYSASTLESGVPSRFKGSGSGTQFTLTISGVQCDDAATYYCAGYKSSDTDGTSFGGGTEVVVKG
For the molecule B1, the Kd with AS200 VHH was 0.0118 nM; with AS325 VHH, 4.04 pM; in the assay with AS673 VHH it was 4.36 pM; with AS988 VHH it was 7.08 pM; with AS154 VHH, 0.402 nM; in the assay with AS656 VHH, 1.34 pM. Besides, the Kd with AS675 VHH was 0.0345 nM; in the assay with AS588 VHH, 7.09 pM; in assay [1] it was 3.47 pM; with AS519 VHH, 1.66 pM.
